Source: paper PMC9763339

Biological target: RBM5-Myc (UniProt P52756)
Sequence of UniProt P52756 (P52756 whole entry): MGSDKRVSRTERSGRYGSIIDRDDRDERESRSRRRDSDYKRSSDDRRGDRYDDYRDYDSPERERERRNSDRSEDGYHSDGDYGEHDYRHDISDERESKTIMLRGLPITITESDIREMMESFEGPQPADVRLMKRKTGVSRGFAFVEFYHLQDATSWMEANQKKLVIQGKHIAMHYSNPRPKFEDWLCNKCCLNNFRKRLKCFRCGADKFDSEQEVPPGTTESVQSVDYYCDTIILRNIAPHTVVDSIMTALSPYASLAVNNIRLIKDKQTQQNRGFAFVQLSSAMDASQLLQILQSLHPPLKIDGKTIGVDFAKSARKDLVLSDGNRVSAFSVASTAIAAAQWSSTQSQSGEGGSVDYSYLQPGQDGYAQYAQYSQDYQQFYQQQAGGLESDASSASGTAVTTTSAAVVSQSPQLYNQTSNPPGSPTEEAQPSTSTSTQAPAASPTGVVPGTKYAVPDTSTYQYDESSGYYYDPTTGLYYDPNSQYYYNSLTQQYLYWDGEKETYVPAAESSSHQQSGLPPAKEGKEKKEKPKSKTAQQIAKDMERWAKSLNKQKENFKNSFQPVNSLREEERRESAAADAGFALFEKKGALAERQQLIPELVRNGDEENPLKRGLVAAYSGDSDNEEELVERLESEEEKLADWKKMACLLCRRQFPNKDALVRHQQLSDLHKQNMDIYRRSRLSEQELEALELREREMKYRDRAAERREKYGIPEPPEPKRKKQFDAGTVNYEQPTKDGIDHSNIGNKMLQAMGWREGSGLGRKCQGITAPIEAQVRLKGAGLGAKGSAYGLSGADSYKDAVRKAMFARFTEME

Substance: InlP-HA (in HeLa cells) (natural protein)
- percentage of HeLa cells with aberrantly shaped nuclei (RBM5-induced cell death) when InlP is co-expressed with RBM5: 13%
